In patent publication US20200048333A1 (THOMAS JEFFERSON UNIVERSITY, published 2020):
No end group written: not given here.

Legend:
GDFYRA = molecular target: T1, GDFYRA (also: biotinylated (position not given here)); experiment: blot: antibody variant immobilized on nitrocellulose, biotinylated peptide bound, chemiluminescence
T1 construct: also called biotinylated α2Ct peptide GDFYRA
T1 peptide: GDFYRA

GYDGDF = molecular target: T2, GYDGDF (also: biotinylated (position not given here)); experiment: as above
T2 construct: also called biotinylated α2Ct peptide GYDGDF
T2 peptide: GYDGDF

[1] = molecular target: T3, human procollagen I isolated from human dermal fibroblasts (human, UniProt P02452 23-1464; P08123 23-1366); experiment: biosensor; scFv-procollagen I
T3 construct: Native triple-helical heterotrimer; also called native α2Ct present in procollagen I
T3 sequence (P02452 23-1464, chain 1 of 2): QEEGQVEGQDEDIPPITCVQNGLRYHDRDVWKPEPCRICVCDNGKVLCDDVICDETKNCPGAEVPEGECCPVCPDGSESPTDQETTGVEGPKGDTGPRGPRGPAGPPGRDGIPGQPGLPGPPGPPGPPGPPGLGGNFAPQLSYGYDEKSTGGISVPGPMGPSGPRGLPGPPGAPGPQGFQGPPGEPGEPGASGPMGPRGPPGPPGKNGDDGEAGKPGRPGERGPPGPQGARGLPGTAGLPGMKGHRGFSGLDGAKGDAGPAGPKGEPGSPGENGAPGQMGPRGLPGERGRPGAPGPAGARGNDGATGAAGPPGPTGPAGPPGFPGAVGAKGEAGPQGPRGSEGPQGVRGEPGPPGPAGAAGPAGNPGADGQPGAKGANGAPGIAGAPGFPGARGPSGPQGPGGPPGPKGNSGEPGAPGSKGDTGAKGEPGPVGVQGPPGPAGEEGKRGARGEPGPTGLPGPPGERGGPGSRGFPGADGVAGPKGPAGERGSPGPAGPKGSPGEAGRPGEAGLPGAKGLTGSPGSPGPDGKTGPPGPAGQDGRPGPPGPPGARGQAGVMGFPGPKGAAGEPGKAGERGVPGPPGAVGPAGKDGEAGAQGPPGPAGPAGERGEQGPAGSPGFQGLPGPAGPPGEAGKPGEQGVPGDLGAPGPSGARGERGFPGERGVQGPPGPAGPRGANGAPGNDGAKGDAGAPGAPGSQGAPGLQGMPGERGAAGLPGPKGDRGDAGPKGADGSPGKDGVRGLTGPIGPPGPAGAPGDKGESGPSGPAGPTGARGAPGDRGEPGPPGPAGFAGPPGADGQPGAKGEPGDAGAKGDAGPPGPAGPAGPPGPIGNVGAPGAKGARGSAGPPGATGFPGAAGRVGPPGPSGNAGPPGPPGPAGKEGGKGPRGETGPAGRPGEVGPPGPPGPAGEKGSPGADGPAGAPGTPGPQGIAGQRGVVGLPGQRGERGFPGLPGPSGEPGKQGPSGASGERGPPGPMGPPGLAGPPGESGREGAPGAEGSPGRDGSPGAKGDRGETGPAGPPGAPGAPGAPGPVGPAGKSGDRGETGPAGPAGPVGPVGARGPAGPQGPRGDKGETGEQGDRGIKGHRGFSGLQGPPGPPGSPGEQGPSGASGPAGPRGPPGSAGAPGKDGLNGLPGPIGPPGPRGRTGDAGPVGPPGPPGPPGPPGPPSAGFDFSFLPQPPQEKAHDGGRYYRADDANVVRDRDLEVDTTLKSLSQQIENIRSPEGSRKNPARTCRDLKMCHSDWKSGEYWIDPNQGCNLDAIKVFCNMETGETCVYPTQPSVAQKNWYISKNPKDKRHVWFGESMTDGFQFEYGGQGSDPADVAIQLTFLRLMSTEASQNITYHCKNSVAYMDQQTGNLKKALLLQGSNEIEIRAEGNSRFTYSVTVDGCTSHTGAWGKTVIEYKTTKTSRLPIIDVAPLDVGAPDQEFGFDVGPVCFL
T3 sequence (P08123 23-1366, chain 2 of 2): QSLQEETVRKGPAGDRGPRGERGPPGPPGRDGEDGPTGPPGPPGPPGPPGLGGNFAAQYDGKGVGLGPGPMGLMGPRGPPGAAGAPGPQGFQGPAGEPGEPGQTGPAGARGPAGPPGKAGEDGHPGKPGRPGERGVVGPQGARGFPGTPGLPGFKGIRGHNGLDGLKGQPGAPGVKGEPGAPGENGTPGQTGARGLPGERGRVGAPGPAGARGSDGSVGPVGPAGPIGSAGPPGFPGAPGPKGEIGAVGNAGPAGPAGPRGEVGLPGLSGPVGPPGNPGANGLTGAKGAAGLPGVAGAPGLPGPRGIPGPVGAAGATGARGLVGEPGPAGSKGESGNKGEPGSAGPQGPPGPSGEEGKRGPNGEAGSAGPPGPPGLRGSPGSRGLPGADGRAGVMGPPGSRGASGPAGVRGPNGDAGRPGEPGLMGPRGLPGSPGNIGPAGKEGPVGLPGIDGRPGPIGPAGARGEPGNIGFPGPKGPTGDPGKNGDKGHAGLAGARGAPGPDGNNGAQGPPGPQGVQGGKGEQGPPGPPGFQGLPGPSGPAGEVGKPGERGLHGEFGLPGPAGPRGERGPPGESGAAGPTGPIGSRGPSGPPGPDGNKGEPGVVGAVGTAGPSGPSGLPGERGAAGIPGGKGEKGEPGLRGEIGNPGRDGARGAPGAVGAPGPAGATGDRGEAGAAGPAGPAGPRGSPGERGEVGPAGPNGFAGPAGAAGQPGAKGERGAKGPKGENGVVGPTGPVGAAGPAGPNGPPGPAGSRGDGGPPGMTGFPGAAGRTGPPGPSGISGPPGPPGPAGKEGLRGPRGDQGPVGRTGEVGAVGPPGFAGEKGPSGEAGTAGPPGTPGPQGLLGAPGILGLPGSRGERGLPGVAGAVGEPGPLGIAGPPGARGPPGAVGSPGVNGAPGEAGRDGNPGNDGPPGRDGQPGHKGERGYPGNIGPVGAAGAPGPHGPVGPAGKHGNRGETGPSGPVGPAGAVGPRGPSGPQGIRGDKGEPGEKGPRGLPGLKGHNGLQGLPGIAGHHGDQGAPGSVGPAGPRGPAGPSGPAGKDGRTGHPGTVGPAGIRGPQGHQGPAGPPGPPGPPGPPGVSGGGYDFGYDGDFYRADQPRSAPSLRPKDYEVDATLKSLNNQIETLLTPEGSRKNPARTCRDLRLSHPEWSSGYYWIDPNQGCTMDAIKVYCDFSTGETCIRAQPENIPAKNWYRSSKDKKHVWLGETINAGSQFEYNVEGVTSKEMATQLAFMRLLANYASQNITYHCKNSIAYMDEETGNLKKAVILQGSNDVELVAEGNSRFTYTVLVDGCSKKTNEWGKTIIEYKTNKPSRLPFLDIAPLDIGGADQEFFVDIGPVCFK
Experimental: (§1) In brief, human procollagen I isolated from human dermal fibroblasts and synthetic α2Ct were immobilized on separate channels of a biosensor. Subsequently, the full-length AFA or its Fab fragments, generated by digestion with papain, were added at various concentrations to a sensor to record the association and the dissociation phases. Data from the AFA binding interactions and the Fab binding interactions were then used to calculate the KD values. In a separate set of experiments, the binding interactions of the scFv variant consisting of the VL and VH domains connected via a peptide linker were also tested using a biosensor. In these assays, the scFv-procollagen I binding interactions were studied.

[2] = molecular target: T3, human procollagen I isolated from human …; experiment: biosensor; procollagen I immobilized, antibody in solution
Experimental: as §1

[3] = molecular target: T4, synthetic full-length α2(I) C-telopeptide of human collagen I (α2Ct) (human); experiment: biosensor; synthetic α2Ct immobilized, antibody in solution
T4 construct: also called synthetic α2Ct; full-length α2Ct
T4 peptide: GGGYDFGYDGDFYRA
Experimental: as §1

α2Ct fragment DFYRA = molecular target: T5, α2Ct fragment DFYRA (human); experiment: biosensor; AFA immobilized, peptide in solution
T5 construct: One of the overlapping peptides spanning the human α2Ct
T5 peptide: DFYRA
Experimental: (§2) Kinetics of the binding of the AFA to defined α2Ct epitopes. Employing a biosensor, we also analyzed the kinetics of the binding of the AFA with defined epitopes of the human α2Ct. For these assays we employed the AFA, control human IgG, and a set of overlapping peptides spanning the α2Ct (Table 3). In brief, the AFA and control human IgG were covalently immobilized on separate channels of a sensor chip. Subsequently, the binding of the α2Ct fragments to the immobilized antibodies was analyzed. Finally, the dissociation equilibrium constant (KD) values for each α2Ct fragment were calculated (Table 1).

α2Ct fragment DGDFY = molecular target: T6, α2Ct fragment DGDFY (human); experiment: biosensor; AFA immobilized, peptide in solution
T6 construct: One of the overlapping peptides spanning the human α2Ct; also called A2_DGDFY
T6 peptide: DGDFY
Experimental: as §2

α2Ct fragment DFGYD = molecular target: T7, α2Ct fragment DFGYD (human); experiment: biosensor; AFA immobilized, peptide in solution
T7 construct: One of the overlapping peptides spanning the human α2Ct
T7 peptide: DFGYD
Experimental: as §2

α2Ct fragment GYDFG = molecular target: T8, α2Ct fragment GYDFG (human); experiment: biosensor; AFA immobilized, peptide in solution
T8 construct: One of the overlapping peptides spanning the human α2Ct
T8 peptide: GYDFG
Experimental: as §2

α2Ct fragment GYDGD = molecular target: T9, α2Ct fragment GYDGD (human); experiment: biosensor; AFA immobilized, peptide in solution
T9 construct: One of the overlapping peptides spanning the human α2Ct
T9 peptide: GYDGD
Experimental: as §2

[4] = molecular target: T4, synthetic full-length α2(I) …; experiment: biosensor; table of α2Ct fragments binding to AFA
Experimental: as §2

[5] = molecular target: T3, human procollagen I isolated from human …; experiment: biosensor; procollagen I immobilized, Fab in solution
Experimental: as §1

[6] = molecular target: T4, synthetic full-length α2(I) …; experiment: biosensor; synthetic α2Ct immobilized, Fab in solution
Experimental: as §1

B1: chimeric human IgG-type AFA (antibody, V domains shown)
VH: AQIQLVQSGPELKKPGETVKISCKASGYTFTDYPLHWVKQAPGKGLQWMAWINTETGEPTYADDFTGRFAFSLETSASTAYLQINNLKNEDTATYFCVRGYYYYWGQGTTLSVSS
VL: DIVMSQSPSSLAVSAGEKVTMSCKSSQSLLNSRTRKNNLAWYQQKPGQSPKLLIYWASTRESGVPDRFTGSGSGTDFTLTISSVQAEDLAVYYCKQSYNLWTFGGGTKLEIKR
notes: also called chIgG; chlgG
Does B1 bind (GDFYRA)?
Result: binds

Does B1 bind (GYDGDF)?
Result: binds

B2: original mouse IgA-type AFA (antibody, V domains shown)
VH: B1 VH
VL: B1 VL
notes: Mouse IgA from a hybridoma, with heavy α chain and light κ chain; also called native mouse IgA-type AFA; original IgA-type anti-α2Ct antibody
Does B2 bind (GDFYRA)?
Result: binds

Does B2 bind (GYDGDF)?
Result: binds

B3: scFv variant of the AFA consisting of the VL and VH domains connected via a peptide linker (scFv, V domains shown, not shown: small tags and cut ends)
VL: B1 VL
V domain: B1 VH
notes: The domain order VL-linker-VH follows the wording 'VL and VH domains connected via a peptide linker'; also called single chain antibody
B3 was tested. Which Kd [1] did it give?
Its Kd is 0.075 µM.

B4: full-length anti-fibrotic antibody (AFA), monoclonal anti-collagen I antibody against the α2(I) C-telopeptide (antibody, V domains shown)
VH: B1 VH
VL: B1 VL
notes: The control was human IgG; also called full-length AFA; Full-length AFA antibody
B4 was tested. Which Kd [2] did it give?
The Kd was 0.000663 µM.

And the Kd [3]?
The Kd was 0.021 nM.

What about the Kd (α2Ct fragment DFYRA) of the same binder?
Its Kd is 449 µM.

What about the Kd (α2Ct fragment DGDFY) of the same binder?
The Kd was 22.2 µM.

What about the Kd (α2Ct fragment DFGYD) of the same binder?
The Kd was 6400 µM.

What about the Kd (α2Ct fragment GYDFG) of the same binder?
Its Kd is 259 µM.

What about the Kd (α2Ct fragment GYDGD) of the same binder?
Its Kd is 604 µM.

And the Kd [4]?
The Kd was 0.021 nM.

B5: Fab fragment of the AFA (Fab, V domains shown)
VH: B1 VH
VL: B1 VL
notes: also called Fab AFA antibody; Fab fragments of the AFA
Which results are given for B5?
Kd [5]: 0.268 µM; Kd [6]: 0.057 µM
